This is an account of results in patent US20250109201A1 (AGENUS, published 2025).

First the molecules themselves.
B1: BA217 (antibody, human IgG2, kappa)
heavy: QVQLVQSGAEVKKPGASVKVSCKASGYTFNRYYMHWVRQAPGQGLEWMGWINPYTGGTNYAQKFQGRVTMTRDTSISTAYMELSRLRSDDTAVYYCASKQPSSDYWGQGTLVTVSSASTKGPSVFPLAPCSRSTSESTAALGCLVKDYFPEPVTVSWNSGALTSGVHTFPAVLQSSGLYSLSSVVTVPSSNFGTQTYTCNVDHKPSNTKVDKTVERKCCVECPPCPAPPVAGPSVFLFPPKPKDTLMISRTPEVTCVVVDVSHEDPEVQFNWYVDGVEVHNAKTKPREEQFNSTFRVVSVLTVVHQDWLNGKEYKCKVSNKGLPAPIEKTISKTKGQPREPQVYTLPPSREEMTKNQVSLTCLVKGFYPSDIAVEWESNGQPENNYKTTPPMLDSDGSFFLYSKLTVDKSRWQQGNVFSCSVMHEALHNHYTQKSLSLSPGK
light: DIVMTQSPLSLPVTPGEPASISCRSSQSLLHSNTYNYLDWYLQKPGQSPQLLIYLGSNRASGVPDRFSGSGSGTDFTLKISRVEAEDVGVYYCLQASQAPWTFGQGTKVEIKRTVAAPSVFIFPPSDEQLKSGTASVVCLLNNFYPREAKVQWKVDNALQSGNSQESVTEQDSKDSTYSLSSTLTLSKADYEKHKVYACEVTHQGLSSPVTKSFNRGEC
B2: BA219 (antibody, human IgG2, kappa)
heavy: B1 heavy with C130S
light: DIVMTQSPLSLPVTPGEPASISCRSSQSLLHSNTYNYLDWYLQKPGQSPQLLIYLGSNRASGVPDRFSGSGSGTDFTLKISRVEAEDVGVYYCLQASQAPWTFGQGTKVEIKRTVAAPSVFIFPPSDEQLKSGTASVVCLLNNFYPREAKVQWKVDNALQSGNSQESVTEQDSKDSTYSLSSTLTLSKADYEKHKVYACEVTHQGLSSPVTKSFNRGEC
B3: BA220 (antibody, human IgG2, kappa)
heavy: B1 heavy with C130S
light: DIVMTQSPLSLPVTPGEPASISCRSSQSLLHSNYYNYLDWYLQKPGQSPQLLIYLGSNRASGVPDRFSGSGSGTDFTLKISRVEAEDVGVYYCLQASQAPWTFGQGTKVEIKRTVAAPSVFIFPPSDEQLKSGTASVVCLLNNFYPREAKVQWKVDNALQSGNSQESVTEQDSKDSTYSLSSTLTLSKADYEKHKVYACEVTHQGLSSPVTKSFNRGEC
B4: BA218 (antibody, human IgG2, kappa)
heavy: B1 heavy
light: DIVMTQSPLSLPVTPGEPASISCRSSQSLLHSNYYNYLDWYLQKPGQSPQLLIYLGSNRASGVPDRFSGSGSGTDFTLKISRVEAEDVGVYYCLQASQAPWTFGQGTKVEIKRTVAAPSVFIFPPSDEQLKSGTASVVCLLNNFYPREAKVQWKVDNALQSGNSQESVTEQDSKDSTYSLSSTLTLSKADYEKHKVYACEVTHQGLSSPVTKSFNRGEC
B5: BA246 (antibody, human IgG2, kappa)
heavy: B1 heavy
light: not shown
B6: BA247 (antibody, human IgG2, kappa)
heavy: B1 heavy with C130S
light: not shown

Changes are numbered by the printed parent chain.

T1 sequence (Q8NHL6 24-482 limits assumed): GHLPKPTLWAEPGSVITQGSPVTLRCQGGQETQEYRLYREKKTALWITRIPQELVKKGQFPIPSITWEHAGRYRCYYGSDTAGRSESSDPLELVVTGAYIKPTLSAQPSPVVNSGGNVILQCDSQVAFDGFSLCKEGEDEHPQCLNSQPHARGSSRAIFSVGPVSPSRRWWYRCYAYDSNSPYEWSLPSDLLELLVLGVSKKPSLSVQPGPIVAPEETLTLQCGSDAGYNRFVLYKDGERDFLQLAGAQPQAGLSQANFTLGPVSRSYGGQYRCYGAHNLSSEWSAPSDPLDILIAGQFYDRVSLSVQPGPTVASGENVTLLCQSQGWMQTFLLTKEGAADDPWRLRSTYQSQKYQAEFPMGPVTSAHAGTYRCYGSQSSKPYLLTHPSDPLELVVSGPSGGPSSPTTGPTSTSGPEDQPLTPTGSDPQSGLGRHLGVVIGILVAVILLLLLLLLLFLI

The first experiment addresses T1, human ILT2 extracellular and transmembrane domains expressed on CHO cells (human, UniProt Q8NHL6 24-482, limits assumed).
T1 construct: domain: extracellular and transmembrane domains; which one is told under assay; also called CHO cells expressing human ILT2 (relatively low or relatively high level); CHO-ILT2 cells
Briefly: flow cytometry, CHO cells with high human ILT2. The protocol: For the antibody binding assay, the cells were seeded in a 96-well U-bottom tissue culture plate at a density of 3×10⁵ cells per well in 25 μL of PBS supplemented with 0.5% BSA, 1 mM EDTA and 0.05% sodium azide (FACS Buffer). The cells were incubated for 30 minutes at 4° C. with […] of a series dilution of anti-ILT2 antibodies or isotype control at concentrations from 10 μg/mL to 2.4 ng/mL in FACS Buffer.
After a 30-minute incubation in the dark at 4° C., the cells were washed twice with cold FACS Buffer, and the cells were analyzed by flow cytometry (BD LSR Fortessa Flow Cytometer). CHO-ILT2 cells were identified and MFI was calculated as above.
Molecule B1 gave an AUC of 264000 and an EC50 of 0.248 µg/mL.
Taken in the same sequence, the figures for B2 were 307000 and 0.183 µg/mL.
Turning to B3, the AUC was 305000 and the EC50 was 0.282 µg/mL.
Taken in the same sequence, the figures for B4 were 295000 and 0.227 µg/mL.

For another experiment, the target named is T2, ECD-His tagged human ILT2 haplotype PE01 (human, UniProt Q8NHL6 24-458).
T2 construct: also called Human ILT2 PE01 ECD; LILRB1/ILT2 PE01; not shown: His tag
T2 sequence (Q8NHL6 24-458): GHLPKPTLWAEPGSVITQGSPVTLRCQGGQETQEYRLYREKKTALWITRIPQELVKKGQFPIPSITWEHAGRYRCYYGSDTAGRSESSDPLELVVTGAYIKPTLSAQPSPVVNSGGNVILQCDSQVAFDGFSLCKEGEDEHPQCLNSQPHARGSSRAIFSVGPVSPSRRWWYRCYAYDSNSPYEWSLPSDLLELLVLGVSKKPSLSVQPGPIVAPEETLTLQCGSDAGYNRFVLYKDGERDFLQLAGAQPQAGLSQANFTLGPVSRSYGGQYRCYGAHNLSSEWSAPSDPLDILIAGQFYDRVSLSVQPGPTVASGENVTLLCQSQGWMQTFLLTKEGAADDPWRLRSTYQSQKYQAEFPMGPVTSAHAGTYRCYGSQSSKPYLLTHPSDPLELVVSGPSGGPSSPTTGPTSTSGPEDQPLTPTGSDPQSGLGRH
Briefly: SPR, ILT2 PE01 ECD-His, average of two measurements. Here is the method: Briefly, SPR experiments were performed using a Biacore T200 instrument, and the association rate (Kₐ), dissociation rate (Kd), and dissociation constant (KD) were calculated from each experiment using a 1:1 binding model with Biacore™ T200 Evaluation Software. Capture of antibodies from the Human Fab Capture kit (28958325, GE Healthcare) to the Series S CM5 sensor chip (29149603, GE Healthcare) was performed using the immobilization wizard for amine coupling from the Biacore™ control panel and following the manufacturer's recommendations included with the kit.
Variants of irrelevant antibody VRC01 (with IgG1, IgG1 N297A, IgG4 S228P, IgG2, or IgG2 C127S constant regions) were used as negative isotype controls. The binding kinetics are shown in Table 5 as an average from two independent measurements.
As for B1, the Kd was 0.17 nM, the koff is 5.4e-05 s⁻¹ and the kon came to 340000 M⁻¹ s⁻¹.
B2 displayed a Kd of 0.14 nM, a koff of 4.8e-05 s⁻¹ and a kon of 350000 M⁻¹ s⁻¹.
On the same counts, the results for B3 are 0.14 nM, 5.7e-05 s⁻¹ and 420000 M⁻¹ s⁻¹.
B5 yielded a Kd of 0.23 nM, a koff of 7.4e-05 s⁻¹ and a kon of 330000 M⁻¹ s⁻¹.
On the same counts, the results for B6 are 0.31 nM, 9.7e-05 s⁻¹ and 330000 M⁻¹ s⁻¹.
The molecule B4 yielded a dissociation constant Kd of 0.19 nM, a koff of 7e-05 s⁻¹ and a kon of 390000 M⁻¹ s⁻¹.
